Data: paper PMC5889556

How the values were obtained:
[1] = molecular target: FtsZ (Bacillus subtilis) (UniProt P17865); conditions: cited from earlier work
[2] = molecular target: ClpXP complex (B. subtilis) (UniProt P50866)

Molecule | Kd [1] [nM] | in vitro ClpXP proteolysis assay with 5 mM ATP: percent of purified His-UgtP degraded after 45 min, by anti-His immunoblot [2] [%] | in vitro ClpXP proteolysis assay without ATP: percent of purified His-UgtP degraded, by anti-His immunoblot [2] [%]
UgtP (from UniProt P54166) | 38 |  | 
His-UgtP (enzyme) MNTNKRVLILTANYGNGHVQVAKTLYEQCVRLGFQHVTVSNLYQESNPIVSEVTQYLYLKSFSIGKQFYRLFYYGVDKIYNKRKFNIYFKMGNKRLGELVDEHQPDIIINTFPMIVVPEYRRRTGRVIPTFNVMTDFCLHKIWVHENVDKYYVATDYVKEKLLEIGTHPSNVKITGIPIRPQFEESMPVGPIYKKYNLSPNKKVLLIMAGAHGVLKNVKELCENLVKDDQVQVVVVCGKNTALKESLSALEAENGDKLKVLGYVERIDELFRITDCMITKPGGITLTEATAIGVPVILYKPVPGQEKENANFFEDRGAAIVVNRHEEILESVTSLLADEDTLHRMKKNIKDLHLANSSEVILEDILKESEMMTAKQKAKVLS |  | 88 | 13
